Test [1] deals with T1, biotinylated CD3 epsilon:delta heterodimer protein (Amsbio AMS.CDD-H52WO) (Homo sapiens (Human), UniProt P07766 23-126; P04234 22-105).
T1 construct: also called CD3 heterodimer
The experiment in a line: BLI (Octet), CD3 on SA sensor, Fab analyte. For orientation: Biolayer interferometry detects binding as a change in optical thickness at a sensor tip.
Experimental: (§1) The CD3 binding kinetics of the purified huSP34 Fabs were determined using OctetRed384 (Pall ForteBio, CA) biolayer interferometry (BLI). […] Streptavidin (SA) coated biosensors tips (Pall ForteBio, CA) were used to capture biotinylated CD3 epsilon: delta heterodimer and typical immobilization levels captured on the SA sensors were 1 nm which approximately translates to 300 ng/ml of captured protein. For kinetic measurements biosensors were first pre-wetted with assay buffer for 10 minutes to remove protective sucrose coating followed by the recommended regeneration conditions for standardization of the biosensor surface for the experiment. In order to load the biosensors with antigen, 300 ng/ml of biotinylated CD3 epsilon: delta heterodimer protein (Amsbio AMS.CDD-H52WO) was immobilized on the SA sensor for 900 seconds. The CD3 loaded biosensors were then blocked with 20 ug/ml biocytin (sigma) for 200 seconds and then dipped into assay buffer containing wells for 200 seconds to remove any non-specific protein or unbound CD3 heterodimer.
(§2) CD3 loaded and biocytin blocked biosensors were then transferred into fresh assay buffer for 200 seconds to collect a baseline read. Kinetic measurements for anti-CD3 Fab and bispecific antibody binding were performed by dipping the CD3-coated biosensors into wells containing multiple concentrations of Fab or Ab (0-300 nM) for 100 seconds followed by a 300 second dissociation time by transferring the biosensors into assay buffer containing wells. The CD3 loaded sensors were then regenerated for the next kinetic measurement. Biosensors were generated by removing bound Fabs or Ab from immobilized CD3 on SA biosensors. Regeneration conditions used consisted of 3 cycles of 5 seconds of dipping the biosensors in Regeneration Buffer (10 mM Glycine HCl pH 1.5) followed by Assay Buffer (10 mM sodium phosphate pH 7.4, 140 mM Sodium Chloride, 0.005% Tween20 with 0.2% BSA).

The target of test [2] is T1, biotinylated CD3 epsilon:delta …. The experiment in a line: BLI (Octet), CD3 on SA sensor, Fab analyte. This is another data set of the same source.
Experimental: as §1, §2

31 molecules from patent publication US20230056252A1 (Gilead, published 2023) can be followed below.

Residue numbers refer to the chain shown, from its start. Read-outs that look alike come from different tables or passages of the source.

B1: huSP34.3.7 Fab-HF (Fab, V domains shown)
VH: EVQLVESGGGLVQPGGSLRLSCAASGFTFNTYAMNWVRQAPGKGLEWVGRIRSKYNNYATYYADSVKGRFTISRDDSKNSLYLQMNSLRTEDTAVYYCVRHGNFGHSYVSWFAYWGQGTLVTVSS
VL: QAVVTQEPSLTVSPGGTVTLTCRSSTGAVTTGHYANWVQQKPGQAPRGLIGGTNKRAPGVPARFSGSLLGGKAALTISGAQPEDEAEYYCALWYSNLWVFGGGTKLTVL
notes: also called HC3+LC7
As a reminder, the Kd is a measure of binding affinity in units of concentration. For orientation: koff means a measure of how fast the partners let go of each other. Low readings indicate slow dissociation, high ones fast dissociation. What is called kon is the rate constant with which the complex forms. In test [1], B1 returned a dissociation constant Kd of 5.6 nM, a koff of 0.00168 s⁻¹ and a kon of 323000 M⁻¹ s⁻¹.

B2: huSP34.35.6 Fab-HF (Fab, V domains shown)
VH: B1 VH with T31D, I51T, D64A, R89K, V95M
VL: B1 VL with E7P, R23G, N54S, K55N, L69S, N96A, L97R
notes: also called HC35+LC6
In test [2], B2 yielded an equilibrium dissociation constant (Kd) of 178 nM, a koff of 0.187 s⁻¹ and a kon of 1.55e+06 M⁻¹ s⁻¹.

B3: huSP34.35.15 Fab-HF (Fab, V domains shown)
VH: B1 VH with T31D, I51T, D64A, R89K, V95M
VL: B1 VL with E7P, R23G, L69S, N96A, L97R
notes: also called HC35+LC15
Regarding B3, in test [2], the Kd turned out to be 303 nM, the dissociation rate constant (koff) was 0.17 s⁻¹ and the kon amounted to 560000 M⁻¹ s⁻¹.

B4: huSP34.34.6 Fab-HF (Fab, V domains shown)
VH: B1 VH with D64A, R89K, V95M
VL: B1 VL with E7P, R23G, N54S, K55N, L69S, N96A, L97R
notes: also called HC34+LC6
With B4, in test [2], binding was put at a Kd of 8 nM, the koff stood at 0.00357 s⁻¹ and the kon was 449000 M⁻¹ s⁻¹.

B5: huSP34.13.10 Fab-HF (Fab, V domains shown)
VH: B1 VH with N30S, D64A, S80T
VL: B1 VL with E7P, R23G, L69S, L97R
notes: also called HC13+LC10
Consider B5, for which, in test [1], the affinity, expressed as Kd, was 1.7 nM; the koff was 0.00204 s⁻¹; the kon is 1.36e+06 M⁻¹ s⁻¹.

B6: huSP34.34.12 Fab-HF (Fab, V domains shown)
VH: B1 VH with D64A, R89K, V95M
VL: B1 VL with E7P, R23G, G59W, V60T, L69S, L97R
notes: also called HC34+LC12
In test [2], B6 registered a Kd of 8.1 nM, a koff of 0.0014 s⁻¹ and an on-rate constant (kon) of 189000 M⁻¹ s⁻¹.

B7: huSP34.12.7 Fab-HF (Fab, V domains shown)
VH: B1 VH with N30S, G49A, D64A
VL: B1 VL
notes: also called HC12+LC7
In test [1], B7 showed a Kd of 2.7 nM, a koff of 0.00244 s⁻¹ and a kon of 966000 M⁻¹ s⁻¹.

B8: huSP34.12.9 Fab-HF (Fab, V domains shown)
VH: B1 VH with N30S, G49A, D64A
VL: B1 VL with E7P, R23G, L69S
notes: also called HC12+LC9
In test [1], B8 returned a Kd of 3.2 nM, a koff of 0.00335 s⁻¹ and a kon of 1.04e+06 M⁻¹ s⁻¹.

B9: huSP34.36.10 Fab-HF (Fab, V domains shown)
VH: B1 VH with T31D, D64A, R89K, V95M
VL: B1 VL with E7P, R23G, L69S, L97R
notes: also called HC36+LC10
Consider B9, for which, in test [2], the Kd came out at 5.8 nM, the off-rate constant (koff) came to 0.00929 s⁻¹ and the kon was found to be 1.6e+06 M⁻¹ s⁻¹.

B10: huSP34.34.11 Fab-HF (Fab, V domains shown)
VH: B1 VH with D64A, R89K, V95M
VL: B1 VL with R23G, I77L
notes: also called HC34+LC11
In test [2], B10 registered a Kd of 10.8 nM, a koff of 0.00118 s⁻¹ and a kon of 143000 M⁻¹ s⁻¹.

B11: huSP34.13.7 Fab-HF (Fab, V domains shown)
VH: B1 VH with N30S, D64A, S80T
VL: B1 VL
notes: also called HC13+LC7
In the case of B11, in test [1], binding was put at a Kd of 2.8 nM, the koff was found to be 0.00275 s⁻¹ and the kon came out at 1.01e+06 M⁻¹ s⁻¹.

B12: huSP34.34.15 Fab-HF (Fab, V domains shown)
VH: B1 VH with D64A, R89K, V95M
VL: B1 VL with E7P, R23G, L69S, N96A, L97R
notes: also called HC34+LC15
For the molecule B12, in test [2], the Kd was found to be 14.7 nM, the koff was 0.0015 s⁻¹ and the on-rate constant (kon) turned out to be 109000 M⁻¹ s⁻¹.

B13: huSP34.11.10 Fab-HF (Fab, V domains shown)
VH: B1 VH with N30S, D64A
VL: B1 VL with E7P, R23G, L69S, L97R
notes: also called HC11+LC10
In test [1], B13 registered a Kd of 2.8 nM, a koff of 0.00192 s⁻¹ and an association rate constant (kon) of 697000 M⁻¹ s⁻¹.

B14: huSP34.11.9 Fab-HF (Fab, V domains shown)
VH: B1 VH with N30S, D64A
VL: B1 VL with E7P, R23G, L69S
notes: also called HC11+LC9
B14: in test [1], the Kd worked out at 3.4 nM, the koff was determined as 0.00284 s⁻¹ and the kon is 898000 M⁻¹ s⁻¹.

B15: huSP34.12.10 Fab-HF (Fab, V domains shown)
VH: B1 VH with N30S, G49A, D64A
VL: B1 VL with E7P, R23G, L69S, L97R
notes: also called HC12+LC10
As to B15, in test [1], the Kd worked out at 4.2 nM, the koff came out at 0.00205 s⁻¹ and the kon amounted to 501000 M⁻¹ s⁻¹.

B16: huSP34.34.14 Fab-HF (Fab, V domains shown)
VH: B1 VH with D64A, R89K, V95M
VL: B1 VL with E7P, R23G, N54S, K55N, L69S, L97R
notes: also called HC34+LC14
In test [2], B16 came in with a Kd of 3.9 nM, a koff of 0.00126 s⁻¹ and a kon of 345000 M⁻¹ s⁻¹.

B17: huSP34.13.9 Fab-HF (Fab, V domains shown)
VH: B1 VH with N30S, D64A, S80T
VL: B1 VL with E7P, R23G, L69S
notes: also called HC13+LC9
On to B17, for which, in test [1], the Kd turned out to be 2.7 nM, the koff was 0.00361 s⁻¹ and the kon worked out at 1.38e+06 M⁻¹ s⁻¹.

B18: huSP34.13.8 Fab-HF (Fab, V domains shown)
VH: B1 VH with N30S, D64A, S80T
VL: B1 VL with R23G, L97R
notes: also called HC13+LC8
Take B18: in test [1], the Kd was 2.5 nM, the koff turned out to be 0.00216 s⁻¹ and the kon turned out to be 933000 M⁻¹ s⁻¹.

B19: huSP34.11.7 Fab-HF (Fab, V domains shown)
VH: B1 VH with N30S, D64A
VL: B1 VL
notes: also called HC11+LC7
On to B19, for which, in test [1], the dissociation constant (Kd) was determined as 3.6 nM, the koff was found to be 0.00212 s⁻¹ and the kon came out at 613000 M⁻¹ s⁻¹.

B20: huSP34.34.16 Fab-HF (Fab, V domains shown)
VH: B1 VH with D64A, R89K, V95M
VL: B1 VL with E7P, R23G, N54S, K55N, G59W, V60T, L69S, L97R
notes: also called HC34+LC16
B20: in test [2], the affinity, expressed as Kd, was 28.8 nM; the koff stood at 0.00599 s⁻¹; the kon was found to be 208000 M⁻¹ s⁻¹.

B21: huSP34.34.17 Fab-HF (Fab, V domains shown)
VH: B1 VH with D64A, R89K, V95M
VL: B1 VL with E7P, R23G, G59W, V60T, L69S, N96A, L97R
notes: also called HC34+LC17
In the case of B21, in test [2], the Kd turned out to be 29.9 nM, the koff was determined as 0.00816 s⁻¹ and the kon was determined as 273000 M⁻¹ s⁻¹.

B22: huSP34.35.12 Fab-H (Fab, V domains shown)
VH: B1 VH with T31D, I51T, D64A, R89K, V95M
VL: B1 VL with E7P, R23G, G59W, V60T, L69S, L97R
notes: also called HC35+LC12
In test [2], B22 gave an equilibrium dissociation constant (Kd) of 125 nM, a koff of 0.103 s⁻¹ and a kon of 2.08e+06 M⁻¹ s⁻¹.

B23: huSP34.12.8 Fab-HF (Fab, V domains shown)
VH: B1 VH with N30S, G49A, D64A
VL: B1 VL with R23G, L97R
notes: also called HC12+LC8
In test [1], B23 displayed a Kd of 3.4 nM, a koff of 0.00166 s⁻¹ and a kon of 493000 M⁻¹ s⁻¹.

B24: huSP34.37.10 Fab-HF (Fab, V domains shown)
VH: B1 VH with I51T, D64A, R89K, V95M
VL: B1 VL with E7P, R23G, L69S, L97R
notes: also called HC37+LC10
B24: in test [2], the equilibrium dissociation constant (Kd) was 16.1 nM, the dissociation rate constant (koff) turned out to be 0.00267 s⁻¹ and the kon is 171000 M⁻¹ s⁻¹.

B25: huSP34.3.9 Fab-HF (Fab, V domains shown)
VH: B1 VH
VL: B1 VL with E7P, R23G, L69S
notes: also called HC3+LC9
On to B25, for which, in test [1], the Kd was 3.5 nM, the dissociation rate constant (koff) was determined as 0.00221 s⁻¹ and the kon was 632000 M⁻¹ s⁻¹.

B26: huSP34.35.10 Fab-HF (Fab, V domains shown)
VH: B1 VH with T31D, I51T, D64A, R89K, V95M
VL: B1 VL with E7P, R23G, L69S, L97R
notes: also called HC35+LC10
Regarding B26, in test [2], the Kd was 224 nM, the koff was found to be 0.0759 s⁻¹ and the kon worked out at 339000 M⁻¹ s⁻¹.

B27: huSP34.34.18 Fab-H (Fab, V domains shown)
VH: B1 VH with D64A, R89K, V95M
VL: B1 VL with E7P, R23G, N54S, K55N, G59W, V60T, L69S, N96A, L97R
notes: also called HC34+LC18
Turning to B27, in test [2], the Kd came out at 87.1 nM, the koff was 0.0224 s⁻¹ and the on-rate (kon) came to 257000 M⁻¹ s⁻¹.

B28: huSP34.34.10 Fab-HF (Fab, V domains shown)
VH: B1 VH with D64A, R89K, V95M
VL: B1 VL with E7P, R23G, L69S, L97R
notes: also called HC34+LC10
As to B28, in test [2], the Kd was found to be 4 nM, the off-rate constant (koff) was found to be 0.000303 s⁻¹ and the kon was found to be 155000 M⁻¹ s⁻¹.

B29: huSP34.11.8 Fab-HF (Fab, V domains shown)
VH: B1 VH with N30S, D64A
VL: B1 VL with R23G, L97R
notes: also called HC11+LC8
On to B29, for which, in test [1], the Kd was 2.8 nM, the koff came to 0.00165 s⁻¹ and the kon worked out at 610000 M⁻¹ s⁻¹.

B30: huSP34.3.8 Fab-HF (Fab, V domains shown)
VH: B1 VH
VL: B1 VL with R23G, L97R
notes: also called HC3+LC8
Take B30: in test [1], the Kd was determined as 4.4 nM, the koff was determined as 0.00113 s⁻¹ and the kon was 255000 M⁻¹ s⁻¹. Also, in test [2], the equilibrium dissociation constant (Kd) turned out to be 1.9 nM, the koff worked out at 0.00024 s⁻¹ and the kon amounted to 131000 M⁻¹ s⁻¹.

B31: mSP34 Fab-HF v2 (Fab, V domains shown)
VH: EVKLLESGGGLVQPKGSLKLSCAASGFTFNTYAMNWVRQAPGKGLEWVARIRSKYNNYATYYADSVKDRFTISRDDSQSILYLQMNNLKTEDTAMYYCVRHGNFGNSYVSWFAYWGQGTLVTVSA
VL: QAVVTQESALTTSPGETVTLTCRSSTGAVTTSNYANWVQEKPDHLFTGLIGGTNKRAPGVPARFSGSLIGDKAALTITGAQTEDEAIYFCALWYSNLWVFGGGTKLTVLG
In test [1], B31 yielded a dissociation constant (Kd) of 5.2 nM, a koff of 0.00266 s⁻¹ and a kon of 532000 M⁻¹ s⁻¹.
